For assay [1], the target named is T1, CD19 (human, UniProt P15391 20-556).
T1 construct: whole, on cells; also called CD19^+ B cell lymphoma (Raji)
T1 sequence (looked up): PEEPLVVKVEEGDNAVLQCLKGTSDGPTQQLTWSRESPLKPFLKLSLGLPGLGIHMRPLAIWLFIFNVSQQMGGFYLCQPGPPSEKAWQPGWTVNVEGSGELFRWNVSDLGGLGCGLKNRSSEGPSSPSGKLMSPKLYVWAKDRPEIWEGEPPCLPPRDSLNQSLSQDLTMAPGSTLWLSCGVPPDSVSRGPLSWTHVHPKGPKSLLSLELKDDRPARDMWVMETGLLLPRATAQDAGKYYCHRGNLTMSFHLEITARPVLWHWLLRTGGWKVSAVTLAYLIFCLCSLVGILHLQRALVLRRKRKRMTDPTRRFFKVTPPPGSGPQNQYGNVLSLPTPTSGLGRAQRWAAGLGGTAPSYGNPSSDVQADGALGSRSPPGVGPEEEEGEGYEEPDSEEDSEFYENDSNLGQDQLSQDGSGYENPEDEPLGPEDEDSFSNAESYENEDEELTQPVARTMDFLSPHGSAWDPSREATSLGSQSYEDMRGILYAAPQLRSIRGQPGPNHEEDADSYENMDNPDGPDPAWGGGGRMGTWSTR
Put plainly: flow cytometry on Raji cells (CD19+), FITC goat anti-human IgG Fab. Background: In flow cytometry, cells or beads pass a laser one at a time.
Description: (§1) Samples were analyzed with FITC conjugated Goat anti-Human IgG Fab antibody and flow cytometry.

In assay [2] the target is T2, PSMA (human, UniProt Q04609 1-750).
T2 construct: whole, on cells; also called prostate-specific membrane antigen; PSMA^+ Prostate cancer (LNCaP)
T2 sequence (Q04609 whole entry): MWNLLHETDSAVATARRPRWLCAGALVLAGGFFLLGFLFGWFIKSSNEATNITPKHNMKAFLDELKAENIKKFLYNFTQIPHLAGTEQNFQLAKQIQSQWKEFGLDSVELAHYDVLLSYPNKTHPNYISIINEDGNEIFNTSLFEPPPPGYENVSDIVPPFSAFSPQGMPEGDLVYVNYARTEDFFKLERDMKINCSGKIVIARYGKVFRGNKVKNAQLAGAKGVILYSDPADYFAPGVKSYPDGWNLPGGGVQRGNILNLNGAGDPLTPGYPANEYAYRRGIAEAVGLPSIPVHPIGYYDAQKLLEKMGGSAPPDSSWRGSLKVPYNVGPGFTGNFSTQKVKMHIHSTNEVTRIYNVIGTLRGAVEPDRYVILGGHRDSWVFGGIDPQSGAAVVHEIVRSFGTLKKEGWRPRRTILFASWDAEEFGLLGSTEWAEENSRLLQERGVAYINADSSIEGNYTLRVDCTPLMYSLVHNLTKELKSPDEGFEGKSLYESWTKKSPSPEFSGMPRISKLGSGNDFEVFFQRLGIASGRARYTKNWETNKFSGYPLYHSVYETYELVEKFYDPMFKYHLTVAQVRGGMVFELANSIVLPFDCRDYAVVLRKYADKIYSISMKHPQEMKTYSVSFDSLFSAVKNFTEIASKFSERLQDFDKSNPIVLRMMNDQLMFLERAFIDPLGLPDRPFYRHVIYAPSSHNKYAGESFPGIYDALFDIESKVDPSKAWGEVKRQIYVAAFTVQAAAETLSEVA
Put plainly: flow cytometry on LNCaP cells (PSMA+), FITC goat anti-human IgG Fab.
Description: as §1

Assay [3] concerns the target T1, CD19. Description: flow cytometry titration on Raji cells (CD19+), FITC goat anti-human IgG Fab.
Description: (§2) FIG. 19B: binding activity to CD19⁺ B cells lymphoma (Raji). […] Fluorescent signal on cell surface was detected using flow cytometry.
(§3) Binding abilities of the BsAbs against CD3⁺ T cells (Jurkat) and CD19⁺ B cells lymphoma (Raji) were analyzed using flow cytometry.
Assay [4] concerns the target T3, CD3 (human, UniProt P07766 23-207).
T3 construct: whole, on cells; CD3 is a multi-chain complex; also called CD3 on CD3-positive T cells; CD3^+ T cells (Jurkat)
Description: flow cytometry titration on Jurkat cells (CD3+), FITC goat anti-human IgG Fab.
Description: as §2, §3

T3 sequence (P07766 23-207): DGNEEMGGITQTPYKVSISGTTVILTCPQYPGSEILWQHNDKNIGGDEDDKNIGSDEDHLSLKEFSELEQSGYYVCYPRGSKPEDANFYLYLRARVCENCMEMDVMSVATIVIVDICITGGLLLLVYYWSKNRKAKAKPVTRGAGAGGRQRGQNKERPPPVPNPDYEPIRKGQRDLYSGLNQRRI

B1: CTA03Fab/CTAT02scFv (bispecific antibody)
heavy: EVQLLESGGGLVQPGGSLRLSCAASGFTFSSFPMAWVRQAPGKGLEWVSTISTSGGRTYYRDSVKGRFTISRDNSKNTLYLQMNSLRAEDTAVYYCAKFRQYSGGFDYWGQGTLVTVSSASTKGPSVFPLAPSSKSTSGGTAALGCLVKDYFPEPVTVSWNSGALTSGVHTFPAVLQSSGLYSLSSVVTVPSSSLGTQTYICNVNHKPSNTKVDKKVEPKSCGGGSGGGEVKLQESGPGLVAPSQSLSVTCTVSGVSLPDYGVSWIRQPPRKGLEWLGVIWGSETTYYNSALKSRLTIIKDNSKSQVFLKMNSLQTDDTAIYYCAKHYYYGGSYAMDYWGQGTSVTVSSGGGGSGGGGSGGGGSDIQMTQTTSSLSASLGDRVTISCRASQDISKYLNWYQQKPDGTVKLLIYHTSRLHSGVPSRFSGSGSGTDYSLTISNLEQEDIATYFCQQGNTLPYTFGGGTKLEIT
light: DIQLTQPNSVSTSLGSTVKLSCTLSSGNIENNYVHWYQLYEGRSPTTMIYDDDKRPDGVPDRFSGSIDRSSNSAFLTIHNVAIEDEAIYFCHSYVSSFNVFGGGTKLTVLRQPKAAPSVTLFPPSSEELQANKATLVCLISDFYPGAVTVAWKADSSPVKAGVETTTPSKQSNNKYAASSYLSLTPEQWKSHRSYSCQVTHEGSTVEKTVAPTECS
notes: also called anti-CD3Fab/anti-CD19scFv; parent CTA03Fab/CTAT02scFv BsAb
Consider B1, for which the binding result in assay [1] is given as “binds”.

B2: CTA03Fab/CTAT05scFv (bispecific antibody)
heavy: EVQLLESGGGLVQPGGSLRLSCAASGFTFSSFPMAWVRQAPGKGLEWVSTISTSGGRTYYRDSVKGRFTISRDNSKNTLYLQMNSLRAEDTAVYYCAKFRQYSGGFDYWGQGTLVTVSSASTKGPSVFPLAPSSKSTSGGTAALGCLVKDYFPEPVTVSWNSGALTSGVHTFPAVLQSSGLYSLSSVVTVPSSSLGTQTYICNVNHKPSNTKVDKKVEPKSCGGGSGGGEVQLVQSGAEVKKPGASVKISCKTSGYTFTEYTIHWVKQASGKGLEWIGNINPNNGGTTYNQKFEDRATLTVDKSTSTAYMELSSLRSEDTAVYYCAAGWNFDYWGQGTTVTVSSGGGGSGGGGSGGGGSDIVMTQSPSSLSASVGDRVTITCKASQDVGTAVDWYQQKPGKAPKLLIYWASTRHTGVPDRFTGSGSGTDFTLTISSLQPEDFADYFCQQYNSYPLTFGGGTKLEIK
light: DIQLTQPNSVSTSLGSTVKLSCTLSSGNIENNYVHWYQLYEGRSPTTMIYDDDKRPDGVPDRFSGSIDRSSNSAFLTIHNVAIEDEAIYFCHSYVSSFNVFGGGTKLTVLRQPKAAPSVTLFPPSSEELQANKATLVCLISDFYPGAVTVAWKADSSPVKAGVETTTPSKQSNNKYAASSYLSLTPEQWKSHRSYSCQVTHEGSTVEKTVAPTECS
notes: also called antiCD3Fab/anti-PSMAscFv
As for B2, in assay [2], the binding result is listed as “binds”.

B3: CTA03-01Fab/CTAT02-02scFv (bispecific antibody)
heavy: EVQLLESGGGLVQPGGSLRLSCAASGFTFSSFPMAWVRQAPGKGLEWVSTISTSGGRTYYRDSVKGRFTISRDNSKNTLYLQMNSLRAEDTAVYYCAKFRQYSGGFDYWGQGTLVTVSSASTKGPSVFPLAPSSKSTSGGTAALGCLVKDYFPEPVTVSWNSGALTSGVHTFPAVLQSSGLYSLSSVVTVPSSSLGTQTYICNVNHKPSNTKVDKKVEPKSCGGGSGGGEVKLQESGPGLVAPSQSLSVTCTVSGVSLPDYGVSWIRQPPRKGLEWLGVIWGSETTYYNSALKSRLTIIKDNSKSQVFLKMNSLQTDDTAIYYCAKHYYYGGSYAMDYWGQGTSVTVSSGGGGSGGGGSGGGGSDIQMTQTTSSLSASLGDRVTISCRASQDISKYLNWYQQKPEGTVKLLIYHTSRLHSGVPSRFSGSGSGTDYSLTISNLEQEDIATYFCQQGNTLPYTFGGGTKLEIT
light: DIQLTQPNSVSTSLGSTVKLSCTLSSGNIENNYVHWYQLYEGRSPTTMIYDDDKRPDAVPDRFSGSIDRSSNSAFLTIHNVAIEDEAIYFCHSYVSSFNVFGGGTKLTVLRQPKAAPSVTLFPPSSEELQANKATLVCLISDFYPGAVTVAWKADSSPVKAGVETTTPSKQSNNKYAASSYLSLTPEQWKSHRSYSCQVTHEGSTVEKTVAPTECS
notes: also called CTA03Fab(VLG58A)/CTAT02scFv(VLD41E)
For B3, the “EC50 (read off the curve)” value in assay [3] is approximately 1 µg/mL.

B4: CTA03-01Fab/CTAT02-01scFv (bispecific antibody)
heavy: EVQLLESGGGLVQPGGSLRLSCAASGFTFSSFPMAWVRQAPGKGLEWVSTISTSGGRTYYRDSVKGRFTISRDNSKNTLYLQMNSLRAEDTAVYYCAKFRQYSGGFDYWGQGTLVTVSSASTKGPSVFPLAPSSKSTSGGTAALGCLVKDYFPEPVTVSWNSGALTSGVHTFPAVLQSSGLYSLSSVVTVPSSSLGTQTYICNVNHKPSNTKVDKKVEPKSCGGGSGGGEVKLQESGPGLVAPSQSLSVTCTVSGVSLPDYGVSWIRQPPRKGLEWLGVIWGSETTYYNSALKSRLTIIKDNSKSQVFLKMNSLQTDDTAIYYCAKHYYYGGSYAMDYWGQGTSVTVSSGGGGSGGGGSGGGGSDIQMTQTTSSLSASLGDRVTISCRASQDISKYLNWYQQKPDATVKLLIYHTSRLHSGVPSRFSGSGSGTDYSLTISNLEQEDIATYFCQQGNTLPYTFGGGTKLEIT
light: DIQLTQPNSVSTSLGSTVKLSCTLSSGNIENNYVHWYQLYEGRSPTTMIYDDDKRPDAVPDRFSGSIDRSSNSAFLTIHNVAIEDEAIYFCHSYVSSFNVFGGGTKLTVLRQPKAAPSVTLFPPSSEELQANKATLVCLISDFYPGAVTVAWKADSSPVKAGVETTTPSKQSNNKYAASSYLSLTPEQWKSHRSYSCQVTHEGSTVEKTVAPTECS
notes: also called CTA03Fab(VLG58A)/CTAT02scFv(VLG42A)
On to B4, for which, in assay [3], the binding result was “binds”.

B5: CTA03-02Fab/CTAT02-01scFv (bispecific antibody)
heavy: EVQLLESGGGLVQPGGSLRLSCAASGFTFSSFPMAWVRQAPGKGLEWVSTISTSGGRTYYRDSVKGRFTISRDNSKNTLYLQMNSLRAEDTAVYYCAKFRQYSGGFDYWGQGTLVTVSSASTKGPSVFPLAPSSKSTSGGTAALGCLVKDYFPEPVTVSWNSGALTSGVHTFPAVLQSSGLYSLSSVVTVPSSSLGTQTYICNVNHKPSNTKVDKKVEPKSCGGGSGGGEVKLQESGPGLVAPSQSLSVTCTVSGVSLPDYGVSWIRQPPRKGLEWLGVIWGSETTYYNSALKSRLTIIKDNSKSQVFLKMNSLQTDDTAIYYCAKHYYYGGSYAMDYWGQGTSVTVSSGGGGSGGGGSGGGGSDIQMTQTTSSLSASLGDRVTISCRASQDISKYLNWYQQKPDATVKLLIYHTSRLHSGVPSRFSGSGSGTDYSLTISNLEQEDIATYFCQQGNTLPYTFGGGTKLEIT
light: DIQLTQPNSVSTSLGSTVKLSCTLSSGNIENNYVHWYQLYEGRSPTTMIYDDDKRPEGVPDRFSGSIDRSSNSAFLTIHNVAIEDEAIYFCHSYVSSFNVFGGGTKLTVLRQPKAAPSVTLFPPSSEELQANKATLVCLISDFYPGAVTVAWKADSSPVKAGVETTTPSKQSNNKYAASSYLSLTPEQWKSHRSYSCQVTHEGSTVEKTVAPTECS
notes: also called CTA03Fab(VLD57E)/CTAT02scFv(VLG42A)
On to B5, for which the binding result in assay [3] was “binds”.

B6: CTA03-02Fab/CTAT02-02scFv (bispecific antibody)
heavy: EVQLLESGGGLVQPGGSLRLSCAASGFTFSSFPMAWVRQAPGKGLEWVSTISTSGGRTYYRDSVKGRFTISRDNSKNTLYLQMNSLRAEDTAVYYCAKFRQYSGGFDYWGQGTLVTVSSASTKGPSVFPLAPSSKSTSGGTAALGCLVKDYFPEPVTVSWNSGALTSGVHTFPAVLQSSGLYSLSSVVTVPSSSLGTQTYICNVNHKPSNTKVDKKVEPKSCGGGSGGGEVKLQESGPGLVAPSQSLSVTCTVSGVSLPDYGVSWIRQPPRKGLEWLGVIWGSETTYYNSALKSRLTIIKDNSKSQVFLKMNSLQTDDTAIYYCAKHYYYGGSYAMDYWGQGTSVTVSSGGGGSGGGGSGGGGSDIQMTQTTSSLSASLGDRVTISCRASQDISKYLNWYQQKPEGTVKLLIYHTSRLHSGVPSRFSGSGSGTDYSLTISNLEQEDIATYFCQQGNTLPYTFGGGTKLEIT
light: DIQLTQPNSVSTSLGSTVKLSCTLSSGNIENNYVHWYQLYEGRSPTTMIYDDDKRPEGVPDRFSGSIDRSSNSAFLTIHNVAIEDEAIYFCHSYVSSFNVFGGGTKLTVLRQPKAAPSVTLFPPSSEELQANKATLVCLISDFYPGAVTVAWKADSSPVKAGVETTTPSKQSNNKYAASSYLSLTPEQWKSHRSYSCQVTHEGSTVEKTVAPTECS
notes: also called CTA03Fab(VLD57E)/CTAT02scFv(VLD41E)
In the case of B6, the binding result in assay [3] was “binds”. Also, the “EC50 (read off the curve)” value in assay [4] was approximately 0.2 µg/mL.

As a reminder, the EC50 (read off the curve) is the concentration at which the effect is half-maximal. A low value points to a more potent agent.
